The supplement of paper PMC12042874
± gives the uncertainty stated by the source.

test: amyloid nucleation score (Sup35N fusion, yeast selection) (log enrichment); library NNK3; higher = more nucleation; inactive = no reads after selection
Outline: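 For the nucleation score, DiMSum gave the log enrichment of output over input reads, centred on the mode score of non-aggregating sequences. Psi-negative yeast expressing Sup35N fused to peptides of 20 random codons were induced with 100 μM copper sulfate for 24 hours and grown 7 days at 30°C on medium lacking adenine and uracil. Input and output plasmid inserts were Illumina-sequenced, and sequences with under 100 input reads were excluded.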

| Substance | amyloid nucleation score |
| --- | --- |
| CNVASSNFRCHYSQMRRFCE | inactive |
| HRHNVGLCCAGDWHLVELGS | 2.06 ± 0.064 |
| FSALQWGSRTYIFVYSGNMS | 0.658 ± 0.24 |
| EDYRVGW | inactive |
| IFLRYSLSSRYHRCLLLKES | inactive |
| NGSLREKSGSVCKRIL | inactive |
| VRTRMEPRG | inactive |
| VVYYFKMLMGVTLYSMVIWQ | inactive |
| ACMLNEWRNVVRPYLCLSKN | inactive |
| DVALCKYFGLNTIVNSFLAM | 1.42 ± 0.081 |
| SLTMNLFVRTASCGLASRVR | -0.541 ± 1.7 |
| LNFCFHYCI | 1.54 ± 0.12 |
| RTVKNSRLGTMIVY | inactive |
| VWVLHRRRSKYMQVTVWLDL | inactive |
| YVTLYLDTGSCYLSLGCGAG | 0.758 ± 0.22 |
| TACVFPLMFTTVPGFFFVVE | inactive |
| FFFYLPICTLGILYLFDCKA | 0.386 ± 0.2 |
| LPCPACKVLNDKNSSKCENY | inactive |
| MRGFFCRIH | inactive |
| SVSRFKWGFKQAQWDKQRRY | inactive |
| IMTLFTILVTLMTMCLDQFV | inactive |
| FFSTQAFLDLAHTRFVNPLG | inactive |
| TWILSMWRSCIPNL | inactive |

| Substance | amyloid nucleation score |
| --- | --- |
| CNGFFCGMCCYTKRKMKYAI | inactive |
| MFSPQSNRFSSFGNNSITGH | inactive |
| VVLRTSLCVMWINVRHLCDP | inactive |
| LAPFV | inactive |
| FYRFFDSV | inactive |
| ISYVYFLGPCV | 2.13 ± 0.08 |
| YNRFKKLSMA | inactive |
| VLKKGYNKRYVGECIANCTV | inactive |
| CQYPCVMLCQC | 0.504 ± 0.19 |
| FMYRTDRYHVRGVITWRLSM | inactive |
| TVLSVGINDFPYRSAISCLR | inactive |
| AVVFCVSEYYQQKRYLNSSQ | inactive |
| TYSVGHR | inactive |
| RINWTMMCKTFLRFINKS | inactive |
| SVGKWMYRPSEYGACCASGY | inactive |
| GADVSSHVKIFINYNLFSFI | 2.55 ± 0.076 |
| KILFILISFLWMLFLVWNFN | 1.48 ± 0.1 |
| IVDNYVVAALLVVLS | inactive |
| RKACYLLVI | inactive |
| WSAIVDSWCDSSRRVEIVVR | inactive |
| ILYRCDCAFFYPLGLLFSRC | inactive |
| TCAPMTITFSCHNNLFKC | 2.65 ± 0.058 |
| DYLLWESKGLVWKCMMTCCG | inactive |

| Substance | amyloid nucleation score |
| --- | --- |
| EDERNSMCTKPIRDHRLSWM | inactive |
| ETLWVKVYLTYLNMTRMSGY | inactive |
| LLYSLWQSHLMLTGCNM | inactive |
| NPMGWGQLTGCFHYVAMFCS | inactive |
| SEFCSNFNQFGC | inactive |
| LCKCLLIEFCYVVK | 0.772 ± 0.12 |
| VIRGRMMCHGIGAYVVWKSH | inactive |
| DDSNCKRKDRVVSVRMMDLT | inactive |
| ATRASPMSGTYSCTFKIIFL | 2.94 ± 0.082 |
| SLRDRKDRWGCQMLRRWVDF | inactive |
| FLWVAANLDFVYDEREHIRG | inactive |
| VENLHNHYQYVFKNGMCDG | 0.263 ± 0.22 |
| VTCCLLFLDCGVGSRMMLGL | -0.356 ± 0.98 |
| WPTFDCRRM | inactive |
| LNLLSSSMIWSFVIGNRRVY | inactive |
| NKWQRNSSNKFTCAQVPFFA | inactive |
| PCYCSFVSRSYYCKDYVRNS | inactive |
| QVTLWFKKNLSELM | inactive |
| SVDVTFSVYHY | 0.702 ± 0.19 |
| KYCHIYFNICLWLAYSLSFL | inactive |
| RKCCGVLSLSASLHDRDDGC | inactive |
| CLKVSTKCFW | 0.097 ± 0.52 |
| IFGSAFFRYYLCITQFCEYS | inactive |

| Substance | amyloid nucleation score |
| --- | --- |
| DPINNYSLFFKLCLELHFFA | inactive |
| FIYDEQSSDSVV | inactive |
| GVRNWG | inactive |
| GFYVLMISVTLMDSQTPLR | 1.65 ± 0.11 |
| FYNFWWCI | 1.87 ± 0.064 |
| SYSVIMNHMKRWNPGDTSKW | inactive |
| SVASRTSEGTGYSCIIRVFH | inactive |
| FSIIKFYWAEYWARRGEIVR | inactive |
| SLHYEHLAGMTCRLVLEYLI | inactive |
| WTTYLWVAGVLA | inactive |
| CELYHMNRDF | inactive |
| WWCMNRCEDAASINGIVARK | inactive |
| SQSWMSNLLMGSRDDL | 1.58 ± 0.13 |
| ICEVNCGLVIWWVRRFEGAS | inactive |
| GGNICPIRPLSRKEWELGRH | -0.566 ± 1.4 |
| GYSRG | inactive |
| ETLGFVSMCHDSLMHNH | inactive |
| QRVSFCIEVIGFQ | -0.042 ± 0.98 |
| NIPPLTLLAVVGS | inactive |
| LHRLRKWRRLY | inactive |
| TGVDILIPFFSPSGT | inactive |
| YLLSL | inactive |
| SCKFITFRGGQVQLVNDEGM | inactive |

| Substance | amyloid nucleation score |
| --- | --- |
| FKDCED | -0.328 ± 0.6 |
| LVYLSASFVW | 0.108 ± 0.67 |
| TVVKPNRLAYHSQLFCKAHT | inactive |
| RLWHLLFLHNRYHVVFNSIL | inactive |
| VFCAGLFDTMCCSDGASVEV | 1.16 ± 0.095 |
| RKGSVKEFRYNMSNLESVCS | inactive |
| EAWIIMSRVGI | inactive |
| RNLLRSTLKGYFWYSCNVDV | inactive |
| VIDRNWRRLHSWVGLVGRAR | inactive |
| SLSIVETIGVCL | inactive |
| KRDLGTNAFTMNRRCYQDTL | inactive |
| RVTVPDVDCGKASWSPGKVC | inactive |
| KISGNFKILDWVGNFSDGNS | inactive |
| HFKSESRFTN | inactive |
| LLHTQMALGSLCVGYKIWLG | inactive |
| FNARLFISLLIKDRK | inactive |
| CIGGWDIKGKQ | inactive |
| SFRSAVRCTS | inactive |
| LFDMLMHTSPC | inactive |
| ARSARGLGQRYLLYMYCLWL | inactive |
| FFFVSSIRIICRV | inactive |
| REYPYDMYSHLSLFDARHPG | inactive |
| VAQSFEIGYYSGLYIYYCSV | inactive |

| Substance | amyloid nucleation score |
| --- | --- |
| SLMEGYSFSVPRSASRCSSQ | inactive |
| NTHKQWVRTLRWVLVSYNCC | inactive |
| VVRIDSSLGKFNFQSAKD | inactive |
| FTRSLETYYFGKNDVWFSLS | inactive |
| KTPLSSSCRKILIINTPRGM | inactive |
| CMLDKSAIIMTRMECIVLSY | inactive |
| MYPYAITVTGMFLLVPSCLD | inactive |
| HKNEVKWFFFQPGKEMLGGR | inactive |
| WTYIWCAN | 1.75 ± 0.11 |
| DRGRMCMNAFPFLCWIWFHG | inactive |
| MVMPGMFGSLRREWHSFFRM | inactive |
| TPHLSCNLRYG | inactive |
| VYQLIYVTGCQNAVRE | 0.674 ± 0.32 |
| MACKLSTRKSSNWGKHLLCY | inactive |
| FVLFAYWHARPNTISRGCDH | inactive |
| EAVYLSLYKECLCLVRVS | inactive |
| NMIAVYLVLPRDSLGMIFTF | inactive |
| LQGQHDAHWQSCSRLSECSQ | inactive |
| LFLVIYYVFMYVA | inactive |
| RDYYGVLLNLCLHHFWLHW | inactive |
| WFFFDIAWRSPTIRRWTSSM | inactive |
| HYNVFGGRLSSSRNMYKGVY | inactive |
| QVILKNMGPNIVSYGLG | inactive |

| Substance | amyloid nucleation score |
| --- | --- |
| MYFFSHPPSNRRE | inactive |
| FNGMACVFRISFVALRLQGG | -0.892 ± 1.7 |
| MVCWANKHWYSSHLLYDSVY | inactive |
| GYRLRQTSARYIAVEWSWKC | inactive |
| LSDCRSWVPCGRHCSF | inactive |
| WMCVLCCSVRNIGKTYKSCL | inactive |
| CCGINGIKLAAANRWSPVEH | inactive |
| VNRFVDTVGKGRITIIGCEH | inactive |
| TRMSVQLISFAKLTFFSACM | inactive |
| FSWSLSLLHIPYKQWRGRWV | inactive |
| MGWALIGSQSPYVCHNMFVR | inactive |
| CSRIRLMGFDWLAPIPHA | inactive |
| MWVFKMRTGQYRASSRSLHR | 0.175 ± 0.37 |
| SCSWHFIFCCNGLHMSVKKR | 1.66 ± 0.084 |
| FSVRIKYI | inactive |
| FLIDNCYWYPHCAPIVAPWL | inactive |
| LSGPRYLVVKSGCACRDSFR | inactive |
| STTVTGLYKNFRHYVSGRCG | inactive |
| GYMSLLHSKPPFWSNP | 0.465 ± 0.64 |
